Columns and labels:
[1] = biological target: T1, Recombinant Human DLL4 (R&D Systems Cat#1506-D4/CF) (human, UniProt Q9NR61 27-524); assay: ECL 96-well plate assay; 0.004 uM Fab, plate coated with 15 ug/mL DLL4
T1 construct: Bought recombinant protein; also called delta-like protein 4; rHuman DLL4

[2] = biological target: T1, Recombinant Human DLL4 (R&D Systems …); assay: ECL 96-well plate assay; 0.02 uM Fab, plate coated with 30 ug/mL DLL4
[3] = biological target: T2, rHuman EGF R/Fc Chimera, CF (R&D Systems Cat#344-ER) (human, UniProt P00533 25-645); assay: ECL multispot (MSD) binding assay, antigen spotted on plate;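 note: purified Fab incubated 1 h at 20 °C on antigen spots, detected with TAG-labelled antibody, electrochemiluminescence compared with each well's blank, signal-to-blank ratio ≥4 counted as hit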
T2 construct: Bought recombinant protein; also called epidermal growth factor receptor

[4] = biological target: T3, rHuman P-Cadherin/Fc Chimera, CF (R&D Systems Cat#861-PC) (human, UniProt P22223 108-654); assay: as above
T3 construct: Bought recombinant protein

[5] = biological target: T4, rHuman ErbB2/Fc Chimera, CF (R&D Systems Cat#1129-ER) (human, UniProt P04626 23-652); assay: as above
T4 construct: Bought recombinant protein; also called human epidermal growth factor 2 receptor

[6] = biological target: T5, Recombinant Human DLL4 (R&D Systems Cat#1506-D4/CF) (human, UniProt Q9NR61 27-524); assay: as above
T5 construct: Bought recombinant protein; also called delta-like protein 4; rHuman DLL4

[7] = biological target: T6, rHuman IGF-1 sR, (IGF-1 sR), CF (R&D Systems Cat#391-GR) (human, UniProt P08069 31-932); assay: as above
T6 construct: Bought recombinant soluble receptor; also called insulin-like growth factor-1 soluble receptor

[8] = biological target: T7, rHuman HGF R/c-MET/Fc Chimera, CF (R&D Systems Cat#358-MT/CF) (human, UniProt P08581 25-932); assay: as above
T7 construct: Bought recombinant protein; also called HGF R/Fc; hepatocyte growth factor receptor
T7 sequence (P08581 25-932, change not shown): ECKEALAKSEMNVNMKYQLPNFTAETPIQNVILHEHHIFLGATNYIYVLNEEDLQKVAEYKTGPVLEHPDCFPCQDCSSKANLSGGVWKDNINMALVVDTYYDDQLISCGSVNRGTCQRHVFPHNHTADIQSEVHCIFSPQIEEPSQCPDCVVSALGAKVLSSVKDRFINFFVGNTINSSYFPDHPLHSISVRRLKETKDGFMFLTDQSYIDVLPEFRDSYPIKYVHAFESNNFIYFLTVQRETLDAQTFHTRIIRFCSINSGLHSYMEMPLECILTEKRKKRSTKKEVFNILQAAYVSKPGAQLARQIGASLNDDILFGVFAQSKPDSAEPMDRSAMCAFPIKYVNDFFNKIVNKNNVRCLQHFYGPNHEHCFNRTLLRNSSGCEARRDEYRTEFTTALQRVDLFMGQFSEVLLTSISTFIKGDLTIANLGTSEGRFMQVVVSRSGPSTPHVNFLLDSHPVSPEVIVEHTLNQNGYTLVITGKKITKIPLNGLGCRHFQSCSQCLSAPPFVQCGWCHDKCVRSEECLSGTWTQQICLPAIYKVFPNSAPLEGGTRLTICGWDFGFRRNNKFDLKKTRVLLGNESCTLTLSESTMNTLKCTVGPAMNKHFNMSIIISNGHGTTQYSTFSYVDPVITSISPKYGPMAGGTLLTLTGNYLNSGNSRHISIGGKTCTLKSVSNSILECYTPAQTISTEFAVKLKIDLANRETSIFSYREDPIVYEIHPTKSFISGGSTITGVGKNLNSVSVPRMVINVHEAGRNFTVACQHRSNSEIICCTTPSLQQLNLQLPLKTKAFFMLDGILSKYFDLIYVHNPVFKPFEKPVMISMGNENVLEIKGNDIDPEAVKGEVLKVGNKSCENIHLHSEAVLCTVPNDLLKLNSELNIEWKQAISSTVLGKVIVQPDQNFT

Binder | Signal/Noise [1] | Signal/Noise [2] | other results
Fab VH1-46_IGHD6-6*01_IGHJ1*01 S102A & L6_IGKJ1*01 (Fab, V domains shown, Fab; heavy chain CDR3 NNK mutant of the parent; Constant parts as for the parent Fab) VH: QVQLVQSGAEVKKPGASVKVSCKASGYTFTSYYMHWVRQAPGQGLEWMGIINPSGGSTSYAQKFQGRVTMTRDTSTSTVYMELSSLRSEDTAVYYCAREEYASSSAEYFQHWGQGTLVTVSS VL: not shown | 69.8 | 51.7 | 
Fab VH1-46_IGHD6-6*01_IGHJ1*01 S102A/S103P/S104F/H111F (APFF) & L6_IGKJ1*01 (Fab, V domains shown, Tested as Fab made in E. coli: VH in Plasmid A (CH1, His6 and Flag tags), VL in Plasmid C (kappa CL); also called APFF / parent; H:APFF & L:wt) VH: QVQLVQSGAEVKKPGASVKVSCKASGYTFTSYYMHWVRQAPGQGLEWMGIINPSGGSTSYAQKFQGRVTMTRDTSTSTVYMELSSLRSEDTAVYYCAREEYAPFSAEYFQFWGQGTLVTVSS VL: not shown |  |  | ECL signal [3]: 370; ECL signal [4]: 450; ECL signal [5]: 312; ECL signal [6]: 172000; ECL signal [7]: 433; ECL signal [8]: 347
Fab VH1-46_IGHD6-6*01_IGHJ1*01 S102I & L6_IGKJ1*01 (Fab, V domains shown, Fab; heavy chain CDR3 NNK mutant of the parent; Constant parts as for the parent Fab) VH: QVQLVQSGAEVKKPGASVKVSCKASGYTFTSYYMHWVRQAPGQGLEWMGIINPSGGSTSYAQKFQGRVTMTRDTSTSTVYMELSSLRSEDTAVYYCAREEYISSSAEYFQHWGQGTLVTVSS VL: not shown | 34.5 | 35.3 | 
Fab VH1-46_IGHD6-6*01_IGHJ1*01 S102V & L6_IGKJ1*01 (Fab, V domains shown, Fab; heavy chain CDR3 NNK mutant of the parent; Constant parts as for the parent Fab) VH: QVQLVQSGAEVKKPGASVKVSCKASGYTFTSYYMHWVRQAPGQGLEWMGIINPSGGSTSYAQKFQGRVTMTRDTSTSTVYMELSSLRSEDTAVYYCAREEYVSSSAEYFQHWGQGTLVTVSS VL: not shown | 36.5 | 35.9 | 
Fab VH1-46_IGHD6-6*01_IGHJ1*01 S102G & L6_IGKJ1*01 (Fab, V domains shown, Fab; heavy chain CDR3 NNK mutant of the parent; Constant parts as for the parent Fab) VH: QVQLVQSGAEVKKPGASVKVSCKASGYTFTSYYMHWVRQAPGQGLEWMGIINPSGGSTSYAQKFQGRVTMTRDTSTSTVYMELSSLRSEDTAVYYCAREEYGSSSAEYFQHWGQGTLVTVSS VL: not shown | 5.2 | 5.1 | 
Fab VH1-46_IGHD6-6*01_IGHJ1*01 S102Q & L6_IGKJ1*01 (Fab, V domains shown, Fab; heavy chain CDR3 NNK mutant of the parent; Constant parts as for the parent Fab (CH1 with His6/Flag tags, kappa CL)) VH: QVQLVQSGAEVKKPGASVKVSCKASGYTFTSYYMHWVRQAPGQGLEWMGIINPSGGSTSYAQKFQGRVTMTRDTSTSTVYMELSSLRSEDTAVYYCAREEYQSSSAEYFQHWGQGTLVTVSS VL: not shown | 31.9 | 40.6 | 

Second part, led by results:

Signal/Noise [1] | Signal/Noise [2] | Binder | other results
1.1 | 0.8 | Fab VH1-46_IGHD6-6*01_IGHJ1*01 S103stop & L6_IGKJ1*01 (Fab, V domains shown, The heavy chain is therefore truncated in CDR3 and carries no CH1 or tags) VH: QVQLVQSGAEVKKPGASVKVSCKASGYTFTSYYMHWVRQAPGQGLEWMGIINPSGGSTSYAQKFQGRVTMTRDTSTSTVYMELSSLRSEDTAVYYCAREEYS VL: not shown | 
31.7 | 21.7 | Fab VH1-46_IGHD6-6*01_IGHJ1*01 S103H & L6_IGKJ1*01 (Fab, V domains shown, Fab; heavy chain CDR3 NNK mutant of the parent; Constant parts as for the parent Fab) VH: QVQLVQSGAEVKKPGASVKVSCKASGYTFTSYYMHWVRQAPGQGLEWMGIINPSGGSTSYAQKFQGRVTMTRDTSTSTVYMELSSLRSEDTAVYYCAREEYSHSSAEYFQHWGQGTLVTVSS VL: not shown | 
27.4 | 27.1 | Fab VH1-46_IGHD6-6*01_IGHJ1*01 S103C & L6_IGKJ1*01 (Fab, V domains shown, Fab; heavy chain CDR3 NNK mutant of the parent; Constant parts as for the parent Fab) VH: QVQLVQSGAEVKKPGASVKVSCKASGYTFTSYYMHWVRQAPGQGLEWMGIINPSGGSTSYAQKFQGRVTMTRDTSTSTVYMELSSLRSEDTAVYYCAREEYSCSSAEYFQHWGQGTLVTVSS VL: not shown | 
82.4 | 59.7 | Fab VH1-46_IGHD6-6*01_IGHJ1*01 S103P & L6_IGKJ1*01 (Fab, V domains shown, Fab; heavy chain CDR3 NNK mutant of the parent; Constant parts as for the parent Fab) VH: QVQLVQSGAEVKKPGASVKVSCKASGYTFTSYYMHWVRQAPGQGLEWMGIINPSGGSTSYAQKFQGRVTMTRDTSTSTVYMELSSLRSEDTAVYYCAREEYSPSSAEYFQHWGQGTLVTVSS VL: not shown | 

From patent US20120316071A1 (published 2012)
